This note sets out measurements from paper doi:10.1101/2024.11.27.625426 (bioRxiv, 2024).

Residue numbers refer to the chain shown, from its start.

The target of assay [1] is sNAp of A/Vietnam/1203/2004 (VN04, H5N1) NA (Influenza A virus A/Vietnam/1203/2004 …, UniProt Q6DPL2, stabilised). In words: ELISA. Conditions: both partners purified.
Assay [2] concerns the target T1, N1-CA09-sNAp, stabilized neuraminidase protein of A/California/04/2009 (H1N1) (Influenza A virus A/California/04/2009 …, stabilised).
T1 chain: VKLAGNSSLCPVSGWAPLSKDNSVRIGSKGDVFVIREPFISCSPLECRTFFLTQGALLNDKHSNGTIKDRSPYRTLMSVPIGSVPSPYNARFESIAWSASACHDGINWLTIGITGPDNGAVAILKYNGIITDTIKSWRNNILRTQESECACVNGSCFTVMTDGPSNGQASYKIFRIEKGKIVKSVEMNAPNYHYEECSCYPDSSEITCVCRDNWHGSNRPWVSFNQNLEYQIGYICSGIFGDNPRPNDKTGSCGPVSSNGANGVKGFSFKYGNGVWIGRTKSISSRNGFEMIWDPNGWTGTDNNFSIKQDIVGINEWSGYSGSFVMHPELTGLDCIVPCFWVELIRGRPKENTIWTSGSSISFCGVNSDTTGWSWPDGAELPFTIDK
In words: cryo-EM structure. To be noted: both partners purified.

B1: NCS.1.1 mAb (IgG) (antibody, V domains shown)
VH: QVQLQESGPRLVKPSETLSLTCSVSGESISSGGYYWTWIRQHPGKGLEWIGNIFDTGSTDYSPSLKTRLTISIDTSKNQFYLRLNSATAADTAVYYCARVGFSLETDRPYYLGLDVWGQGTTVTVSS
VL: DIVMTQSPLSLPVTPGEPASISCRSSQSLLHSNGYTYLDWYLQKPGQSPQLLISFTSNRASGVPDRFSGSGSGTYFTLKISRVEAEDVGVYYCMQAVQTPWTFGQGTKVEIK
notes: copies: 2 + 2
As for B1, the binding result in assay [1] is “binds”.

B2: NCS.1.3 mAb (IgG) (antibody, V domains shown)
VH: B1 VH with N85T
VL: B1 VL with S10T, S54Y, T56A, T99S
notes: copies: 2 + 2
For the molecule B2, the binding result in assay [1] was “binds”.

B3: NCS.1.1 Fab (Fab, V domains shown)
VH: B1 VH
VL: B1 VL
The stoichiometry N is a count of units in the complex or per binding partner. As for B3, in assay [2], the “stoichiometry N” value was found to be 4 Fabs per NA tetramer.
